Source: patent US20030059436A1, “Band 3 antigenic peptides, malaria polypeptides and uses thereof” (priority 2001, published 2003)
Ends that are not written are not given here.

Key:
[1] = tested on: RBCs; conditions: literature reports; cited from earlier work
[2] = target: T1, GST-5ABC (Homo sapiens, UniProt P02730); test: Native MSP1 binding to GST-5ABC beads; conditions: Triton X-100 parasite extract, 22-24 h at 4° C.; GST beads as control
T1 construct: The 5ABC (amino acid 720-761), 5BC (731-761), and 6AB (807-842) genes were amplified from a human reticulocyte cDNA library; made in house; host or cells: E. coli (pGEX-2TK)
T1 sequence (P02730 720-761): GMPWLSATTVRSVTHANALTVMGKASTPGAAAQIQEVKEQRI

[3] = target: human erythroid Band 3 protein (Anion Exchanger 1) on human RBCs (human) (UniProt P02730); test: 32P-MSP119 on intact human RBCs in suspension; RBCs treated with chymotrypsin 10 min, against untreated RBCs
[4] = target: human erythroid Band 3 protein (Anion Exchanger 1) on human RBCs (human) (UniProt P02730); test: 32P-MSP119 on intact human RBCs in suspension; RBCs treated with chymotrypsin 40 min, against untreated RBCs
[5] = target: mouse erythroid Band 3 protein on wild-type mouse RBCs (mouse) (UniProt P04919); test: 32P-MSP119 on intact mouse RBCs in suspension; RBCs treated with neuraminidase, against untreated RBCs
[6] = target: mouse erythroid Band 3 protein on wild-type mouse RBCs (mouse) (UniProt P04919); test: 32P-MSP119 on intact Band 3 (-/-) mouse RBCs against untreated wild-type mouse RBCs in suspension
[7] = target: mouse erythroid Band 3 protein on wild-type mouse RBCs (mouse) (UniProt P04919); test: 32P-MSP119 on intact mouse RBCs in suspension; RBCs treated with chymotrypsin 40 min, against untreated RBCs
[8] = target: human erythroid Band 3 protein (Anion Exchanger 1) on human RBCs (human) (UniProt P02730); test: 32P-MSP119 on intact human RBCs in suspension; RBCs treated with neuraminidase, against untreated RBCs
[9] = target: T2, GST-MSP142 (Plasmodium falciparum, UniProt P04933); test: Solution-binding assay, GST-MSP142 on beads; parameters: species or system P. falciparum (FCB1 strain)
T2 construct: amino acids 1264-1639; made in house; host or cells: E. coli DH5α (pGEX6P-2)
Description: (§1) MSP138 (SEQ ID NO:33), MSP142 (SEQ ID NO:34), and MSP119 (SEQ ID NO:35) genes were amplified from a P. falciparum (FCB1 strain) cDNA library (J. B. Dame) by PCR using the following primers: 5′-[…] (SEQ ID NO: 14, MSP138, sense, 3121-3133, Xhol), 5′-[…] (SEQ ID NO:15, MSP138, antisense, 4200-4193, NotI), 5′-[…] (SEQ ID NO:16, MSP142, sense, 4201-4218, XhoI), 5′-[…] (SEQ ID NO:17, MSP142, antisense, 5334-5321 NotI), 5′-[…]: (SEQ ID NO:18, MSP119, sense, 4993-5009 BamHI), 5′-[…] (SEQ ID NO:19, MSP119, antisense, 5334-5318, EcoRI). Similar cDNA libraries as well as CDNA pools are available to the public from MR4, ATCC (www.malaria.atcc.org).
(§2) Primers: 5′-[…] […] (SEQ ID NO:26, 6AB, antisense, 2640-2620, EcoRI).

[10] = tested on: GST-MSP138; test: Solution-binding assay, GST-MSP138 on beads; parameters: species or system P. falciparum (FCB1 strain); conditions: 32P-labeled 5BC 21, 42, 84, 168 μM
Description: as §1, §2

[11] = target: T3, SV40 large T-antigen fused to GAL4 AD (pGADT7 vector), two-hybrid control (UniProt P03070 86-708); test: yeast two-hybrid assay (positive control)
T3 construct: Kit control; also called pGADT7-T

[12] = target: T3, SV40 large T-antigen fused to GAL4 AD …; test: yeast two-hybrid assay (negative control)
[13] = target: GST-MSP138 (P. falciparum FCB1 MSP1 38 kDa fragment as GST fusion protein, C-terminal truncated forms) (Plasmodium falciparum (FCB1 strain)) [GST: P08515]; test: solution-binding assay, 32P-labeled peptide on GST fusion beads
[14] = target: GST-MSP142 (P. falciparum FCB1 MSP1 42 kDa fragment as GST fusion protein) (Plasmodium falciparum (FCB1 strain)) [GST: P08515]; test: as above
[15] = tested on: human RBCs fixed in methanol; conditions: GST-MSP142 1 μM, GST-MSP138 8 μM; GST alone did not bind
Method: (§3) RBCs freshly collected into citrate phosphate dextrose buffer were washed (3×) and resuspended in RPMI (20% hematocrit). Thin smears of RBCs on glass slides were allowed to air-dry and fixed in methanol (20-30 sec). The slides were washed with PBS (1×), blocked with 10% fetal bovine serum (FBS) in PBS (pH 7.4) for 1.5 h at 37° C., and again washed with PBS (5×, 10 min each). Fixed cells were incubated with GST-MSP142 (1 μM), GST-MSP138 (8 μM), or GST (9 μM) for 3.5 h at 37° C. in 10% FBS. Slide samples were washed with PBS (5×), incubated with goat anti-GST antibody (1:1,000, Amersham Pharmacia Biotech), washed again (5×), and incubated with rabbit anti-goat FITC-conjugated antibody (1:60, Sigma-Aldrich, St. Louis, Mo.). For visualizing spectrin, fixed cells treated with 10% FBS were incubated with a rabbit antibody raised against human spectrin (Sigma-Aldrich) followed by goat anti-rabbit FITC-conjugated antibody. All dilutions of proteins and antibodies were made in 10% FBS except FITC-conjugated antibodies.
(§4) First, the above-described RBC binding assay was performed using ^32P-labeled MSP119 and intact Band 3 (−/−) mouse RBCs in suspension. […] In the second method, we carried out an indirect immunofluorescence assay (IFA) using wild-type human and mouse RBCs and Band 3 (−/−) mouse RBCs fixed in methanol.

[16] = tested on: mouse RBCs fixed in methanol; conditions: GST-MSP142 1 μM, GST-MSP138 8 μM
Method: as §3, §4

human erythroid Band 3 protein (Anion Exchanger 1) on human RBCs (human), sequence (P02730 whole entry, form in doubt): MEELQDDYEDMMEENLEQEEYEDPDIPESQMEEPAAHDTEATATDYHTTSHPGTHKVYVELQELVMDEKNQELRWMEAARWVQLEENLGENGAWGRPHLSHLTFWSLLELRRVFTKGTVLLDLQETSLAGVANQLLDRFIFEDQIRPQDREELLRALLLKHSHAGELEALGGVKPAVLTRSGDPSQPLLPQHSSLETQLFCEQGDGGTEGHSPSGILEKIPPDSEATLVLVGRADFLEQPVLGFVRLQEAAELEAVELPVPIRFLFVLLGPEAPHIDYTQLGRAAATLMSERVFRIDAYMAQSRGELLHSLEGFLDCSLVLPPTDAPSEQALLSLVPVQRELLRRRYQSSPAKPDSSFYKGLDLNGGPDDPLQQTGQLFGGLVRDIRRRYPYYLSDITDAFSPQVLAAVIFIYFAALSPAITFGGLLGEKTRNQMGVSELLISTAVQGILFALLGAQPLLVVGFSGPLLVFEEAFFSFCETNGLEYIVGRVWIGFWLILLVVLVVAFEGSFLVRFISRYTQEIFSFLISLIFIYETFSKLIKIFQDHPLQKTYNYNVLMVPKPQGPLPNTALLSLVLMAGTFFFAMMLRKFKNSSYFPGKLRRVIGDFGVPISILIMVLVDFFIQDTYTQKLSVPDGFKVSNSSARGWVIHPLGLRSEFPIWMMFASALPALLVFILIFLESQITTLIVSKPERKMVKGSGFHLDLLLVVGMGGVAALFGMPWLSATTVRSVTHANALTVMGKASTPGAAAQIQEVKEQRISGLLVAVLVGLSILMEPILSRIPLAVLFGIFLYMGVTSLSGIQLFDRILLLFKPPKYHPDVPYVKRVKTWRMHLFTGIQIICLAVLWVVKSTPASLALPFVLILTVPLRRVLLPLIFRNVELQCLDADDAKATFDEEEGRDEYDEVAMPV
mouse erythroid Band 3 protein on wild-type mouse RBCs (mouse), sequence (P04919 whole entry): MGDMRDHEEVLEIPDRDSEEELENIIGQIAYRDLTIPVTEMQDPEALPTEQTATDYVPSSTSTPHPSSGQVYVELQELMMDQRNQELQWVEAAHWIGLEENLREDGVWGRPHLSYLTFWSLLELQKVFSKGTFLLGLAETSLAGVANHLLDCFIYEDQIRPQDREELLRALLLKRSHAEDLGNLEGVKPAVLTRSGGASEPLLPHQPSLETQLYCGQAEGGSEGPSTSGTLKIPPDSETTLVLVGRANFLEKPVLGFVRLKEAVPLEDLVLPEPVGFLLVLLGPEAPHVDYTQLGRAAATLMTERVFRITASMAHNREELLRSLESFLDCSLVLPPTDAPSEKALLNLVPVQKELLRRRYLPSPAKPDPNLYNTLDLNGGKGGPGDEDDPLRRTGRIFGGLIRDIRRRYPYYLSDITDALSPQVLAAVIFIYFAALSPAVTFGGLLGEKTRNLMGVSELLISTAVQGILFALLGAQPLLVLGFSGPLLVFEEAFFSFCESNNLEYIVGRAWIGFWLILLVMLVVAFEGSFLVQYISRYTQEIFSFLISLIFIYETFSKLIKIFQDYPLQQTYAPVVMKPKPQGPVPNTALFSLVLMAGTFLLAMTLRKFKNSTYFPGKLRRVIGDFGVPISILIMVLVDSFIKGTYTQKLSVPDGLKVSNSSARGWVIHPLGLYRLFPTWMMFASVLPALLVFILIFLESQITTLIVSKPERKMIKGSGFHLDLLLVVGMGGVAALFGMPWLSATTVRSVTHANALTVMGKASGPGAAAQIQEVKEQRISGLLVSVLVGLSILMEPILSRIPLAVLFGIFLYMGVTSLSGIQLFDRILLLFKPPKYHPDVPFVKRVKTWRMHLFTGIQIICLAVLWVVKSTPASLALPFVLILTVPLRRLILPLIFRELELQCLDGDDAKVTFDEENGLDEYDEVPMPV
T2 sequence (P04933 1264-1639): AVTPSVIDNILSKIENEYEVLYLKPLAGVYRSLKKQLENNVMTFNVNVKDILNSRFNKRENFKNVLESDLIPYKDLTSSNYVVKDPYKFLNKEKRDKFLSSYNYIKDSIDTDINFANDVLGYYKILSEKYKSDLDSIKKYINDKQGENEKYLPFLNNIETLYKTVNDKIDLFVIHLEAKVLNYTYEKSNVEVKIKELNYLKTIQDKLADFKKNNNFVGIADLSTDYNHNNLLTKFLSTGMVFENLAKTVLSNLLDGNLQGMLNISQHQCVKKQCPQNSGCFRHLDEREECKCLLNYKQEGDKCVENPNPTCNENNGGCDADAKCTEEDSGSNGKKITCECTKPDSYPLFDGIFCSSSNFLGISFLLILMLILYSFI
T3 sequence (P03070 86-708 limits assumed): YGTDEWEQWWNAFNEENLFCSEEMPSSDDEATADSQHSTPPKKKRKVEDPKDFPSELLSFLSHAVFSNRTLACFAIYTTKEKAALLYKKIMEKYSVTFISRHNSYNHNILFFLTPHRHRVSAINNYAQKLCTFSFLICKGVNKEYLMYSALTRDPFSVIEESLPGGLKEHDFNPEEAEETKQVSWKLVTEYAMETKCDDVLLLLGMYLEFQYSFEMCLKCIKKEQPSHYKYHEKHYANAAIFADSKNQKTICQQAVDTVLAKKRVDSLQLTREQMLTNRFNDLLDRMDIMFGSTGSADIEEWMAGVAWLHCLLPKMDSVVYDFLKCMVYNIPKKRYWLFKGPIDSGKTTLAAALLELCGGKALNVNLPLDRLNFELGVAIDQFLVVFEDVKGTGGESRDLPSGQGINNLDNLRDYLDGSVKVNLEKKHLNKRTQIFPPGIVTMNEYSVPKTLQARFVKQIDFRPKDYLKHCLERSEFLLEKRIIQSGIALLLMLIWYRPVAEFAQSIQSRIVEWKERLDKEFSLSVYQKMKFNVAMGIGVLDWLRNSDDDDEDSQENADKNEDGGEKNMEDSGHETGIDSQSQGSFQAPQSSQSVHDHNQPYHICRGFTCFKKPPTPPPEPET
GST-MSP142 (P. falciparum FCB1 MSP1 42 kDa fragment as GST fusion protein) (Plasmodium falciparum (FCB1 strain)) [GST: P08515], sequence (P08515 whole entry, the tested form may be a part): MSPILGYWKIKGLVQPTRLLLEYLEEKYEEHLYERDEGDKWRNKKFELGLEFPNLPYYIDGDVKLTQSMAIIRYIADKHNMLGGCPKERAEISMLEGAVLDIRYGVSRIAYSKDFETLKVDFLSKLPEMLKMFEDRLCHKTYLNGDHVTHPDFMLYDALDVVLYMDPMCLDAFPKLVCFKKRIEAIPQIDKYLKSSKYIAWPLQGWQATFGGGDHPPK
GST-MSP138 (P. falciparum FCB1 MSP1 38 kDa fragment as GST fusion protein, C-terminal truncated forms) (Plasmodium falciparum (FCB1 strain)) [GST: P08515], sequence (P08515 whole entry, the tested form may be a part): as above

MSP1: P. falciparum merozoite surface protein-1, native full-length
binding to RBCs (earlier studies) [1]: bound to RBCs in sialic acid-dependent manner | binding of radiolabeled native parasite protein to GST-5ABC beads [2]: bound specifically to the 5ABC domain

32P-labeled MSP119 (P. falciparum FCB1 MSP1 19 kDa C-terminal fragment, GST removed with thrombin) (ligand)
reduction in ability to bind MSP119 as compared to the untreated RBCs [3]: 30% | reduction in ability to bind MSP119 as compared to the untreated RBCs [4]: 37% | increase in ability to bind MSP119 as compared to the untreated RBCs [5]: 51% | reduction of radioactivity associated with Band 3 (-/-) mouse RBCs as compared to untreated wild-type mouse RBCs [6]: 72% | reduction in ability to bind MSP119 as compared to the untreated RBCs [7]: 41% | increase in ability to bind MSP119 as compared to the untreated RBCs [8]: 52%

GMPWLSATTVRSVTHANALTVMGKASTPGAAAQIQEVKEQRI (not fully specified) [Peptide 5ABC, Recombinant human Band 3 peptide, amino acid 720-761, expressed as GST or GAL4 DNA-BD fusion]
binding to GST-MSP142 on beads ([9]; 32P-labeled 5ABC 10, 20, 40, 80 μM): concentration-dependent manner | Kd ([9]; 32P-labeled peptide, pH 7.4, 25° C., 3.5 h): 36 µM | binding to GST-MSP138 on beads [10]: specifically bound

B1: p53 fused to GAL4 DNA-BD (pGBKT7 vector), two-hybrid control (other)
chain: MKLLSSIEQACDICRLKKLKCSKEKPKCAKCLKNNWECRYSPKTKRSPLTRAHLTEVESRLERLEQLFLLIFPREDLDMILKMDSLQDIKALLTGLFVQDNVNKDAVTDRLASVETDMPLTLRQHRISATSSSEESSNKGQRQLTVSPVTETPGPVAPAPATPWPLSSFVPSQKTYQGNYGFHLGFLQSGTAKSVMCTYSPPLNKLFCQLAKTCPVQLWVSATPPAGSRVRAMAIYKKSQHMTEVVRRCPHHERCSDGDGLAPPQHLIRVEGNLYPEYLEDRQTFRHSVVVPYEPPEAGSEYTTIHYKYMCNSSCMGGMNRRPILTIITLEDSSGNLLGRDSFEVRVCACPGRDRRTEEENFRKKEVLCPELPPGSAKRALPTCTSASPPQKKKPLDGEYFTLKIRGRKRFEMFRELNEALELKDAHATEESGDSRAHSSYLKTKKGQSTSRHKKTMVKKVGPDSD
notes: Kit control; also called pGBKT7-53
binding result [11]: binds

B2: Lamin C fused to GAL4 DNA-BD (pGBKT7 vector), two-hybrid control (other)
chain: MKLLSSIEQACDICRLKKLKCSKEKPKCAKCLKNNWECRYSPKTKRSPLTRAHLTEVESRLERLEQLFLLIFPREDLDMILKMDSLQDIKALLTGLFVQDNVNKDAVTDRLASVETDMPLTLRQHRISATSSSEESSNKGQRQLTVSSEEVVSREVSGIKAAYEAELGDARKTLDSVAKERARLQLELSKVREEFKELKARNTKKEGDLIAAQARLKDLEALLNSKEAALSTALSEKRTLEGELHDLRGQVAKLEAALGEAKKQLQDEMLRRVDAENRLQTMKEELDFQKNIYSEELRETKRRHETRLVEID
notes: Kit control
binding result [12]: no binding

SVTHANALTVMGKASTPGAAAQIQEVKEQRI (peptide, not shown: small tags and cut ends, modifications not checked) [32P-labeled 5BC (recombinant human Band 3 amino acid 731-761, GST removed with thrombin)]
Kd [13]: 67 µM

GMPWLSATTVRSVTHANALTVMGKASTPGAAAQIQEVKEQRI (peptide, not shown: small tags and cut ends, modifications not checked) [32P-labeled 5ABC (recombinant human Band 3 amino acid 720-761, GST removed with thrombin)]
Kd [14]: 36 µM

B3: MSP142: 42 kDa proteolytic fragment of P. falciparum MSP1 (FCB1 strain) (protein)
chain: AISVTMDNILSGFENEYDVIYLKPLAGVYRSLKKQIEKNIFTFNLNLNDILNSRLKKRKYFLDVLESDLMQFKHISSNEYIIEDSFKLLNSEQKNTLLKSYKYIKESVENDIKFAQEGISYYEKVLAKYKDDLESIKKVIKEEKEKFPSSPPTTPPSPAKTDEQKKESKFLPFLTNIETLYNNLVNKIDDYLINLKAKINDCNVEKDEAHVKITKLSDLKAIDDKIDLFKNPYDFEAIKKLINDDTKKDMLGKLLSTGLVQNFPNTIISKLIEGKFQDMLNISQHQCVKKQCPENSGCFRHLDEREECKCLLNYKQEGDKCVENPNPTCNENNGGCDADATCTEEDSGSSRKKITCECTKPDSYPLFDGIFCS
binding to wild-type human RBCs (IFA) [15]: bound | binding to Band 3 (−/−) mouse RBCs (IFA) [16]: neither GST-MSP142, GST-MSP138, nor GST alone bound | binding to wild-type mouse RBCs (IFA) ([16]; GST alone did not bind): bound | binding of radiolabeled native parasite protein to GST-5ABC beads [2]: bound specifically to the 5ABC domain
